These results are taken from patent US20140087995A1 (published 2014).

What is called IC50 is the concentration that gives 50% inhibition.

The target in assay [1] is T1, human calcitonin receptor (human, UniProt P30988 25-474).
T1 construct: whole, on cells; Used as cell membranes; also called hCTR; hCT
T1 sequence (looked up): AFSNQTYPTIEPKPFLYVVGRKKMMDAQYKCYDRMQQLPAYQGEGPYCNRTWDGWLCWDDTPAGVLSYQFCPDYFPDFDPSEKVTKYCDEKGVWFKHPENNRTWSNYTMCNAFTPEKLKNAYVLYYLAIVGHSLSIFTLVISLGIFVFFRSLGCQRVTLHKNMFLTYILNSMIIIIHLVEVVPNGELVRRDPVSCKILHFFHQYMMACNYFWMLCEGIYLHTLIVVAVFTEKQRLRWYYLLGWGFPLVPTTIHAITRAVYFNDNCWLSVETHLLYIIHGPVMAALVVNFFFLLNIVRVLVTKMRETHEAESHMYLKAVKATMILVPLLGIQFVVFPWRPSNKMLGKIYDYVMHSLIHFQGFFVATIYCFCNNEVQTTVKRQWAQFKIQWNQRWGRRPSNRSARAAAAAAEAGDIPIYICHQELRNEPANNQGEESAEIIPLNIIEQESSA
In words: ratio of hCTR IC50 to hAmylin-R IC50 (reference: human amylin receptor). A digest of the protocol:
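Competition binding by SPA uses membrane preparations (35 ng/μL final) in pH 7.4 Hepes buffer with 1 mM CaCl2 and 5 mM MgCl₂. Incubation lasts 120 min at 25° C, and IC₅₀ comes from one-site fitting.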

Assay [2] has as its target T1, human calcitonin receptor. In words: SPA competition on BHK cell membranes, 125I-calcitonin as radioligand (Assay VII). A digest of the protocol: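 BHK hCTR membranes 35 ng/μL + SPA beads 0.05 mg/well; buffer 50 mM Hepes pH 7.4, 1 mM CaCl2, 5 mM MgCl₂, 0.1% OA, 0.02% Tween20. 120 min, 25° C., shaking. Scintillation count; IC50 by one-site binding competition.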

Numbered stars: 1 amine (or outer) side, 2 acyl side, 3 side chain; on linkers, the order of the positions; unused ones are H or OH. Bridge positions count the residues as written; N and C are the ends. Side chains are listed from the residue outwards. Ends that are not written are not given here. * marks the point of attachment. C20 diacid = O=C(O)CCCCCCCCCCCCCCCCCCC(=O)*; γGlu = O=C(O)[C@H](CCC(=O)[*:2])N[*:1]; AEEA = NCCOCCOCC(=O)O

B1: N^ε1-[2-[2-[2-[[(4S)-4-carboxy-4-(19-carboxynonadecanoylamino)butanoyl]amino]ethoxy]ethoxy]acetyl]-[His14,Arg17,Pro21,Pro27,His34]-h-amylin (peptide)
peptide: K([AEEA-γGlu-C20 diacid])CNTATCATQRLAHFLRHSSPNFGAIPSSTNVGHNTY-NH2
modifications: disulfide 2-7; N-terminus assumed
SMILES: CC[C@H](C)[C@H](NC(=O)[C@H](C)NC(=O)CNC(=O)[C@H](Cc1ccccc1)NC(=O)[C@H](CC(N)=O)NC(=O)[C@@H]1CCCN1C(=O)[C@H](CO)NC(=O)[C@H](CO)NC(=O)[C@H](Cc1c[nH]cn1)NC(=O)[C@H](CCCNC(=N)N)NC(=O)[C@H](CC(C)C)NC(=O)[C@H](Cc1ccccc1)NC(=O)[C@H](Cc1c[nH]cn1)NC(=O)[C@H](C)NC(=O)[C@H](CC(C)C)NC(=O)[C@H](CCCNC(=N)N)NC(=O)[C@H](CCC(N)=O)NC(=O)[C@@H](NC(=O)[C@H](C)NC(=O)[C@@H]1CSSC[C@H](NC(=O)[C@@H](N)CCCCNC(=O)COCCOCCNC(=O)CC[C@H](NC(=O)CCCCCCCCCCCCCCCCCCC(=O)O)C(=O)O)C(=O)N[C@@H](CC(N)=O)C(=O)N[C@@H]([C@@H](C)O)C(=O)N[C@@H](C)C(=O)N[C@@H]([C@@H](C)O)C(=O)N1)[C@@H](C)O)C(=O)N1CCC[C@H]1C(=O)N[C@@H](CO)C(=O)N[C@@H](CO)C(=O)N[C@H](C(=O)N[C@@H](CC(N)=O)C(=O)N[C@H](C(=O)NCC(=O)N[C@@H](Cc1c[nH]cn1)C(=O)N[C@@H](CC(N)=O)C(=O)N[C@H](C(=O)N[C@@H](Cc1ccc(O)cc1)C(N)=O)[C@@H](C)O)C(C)C)[C@@H](C)O
notes: also called compound 80
Regarding B1, the “Ratio hCT/hAmylin binding” value in assay [1] is 68.1. For the same molecule, the IC50 in assay [2] stood at 19.8 nM.

B2: N^ε1-[2-[2-[2-[[(4S)-4-carboxy-4-(19-carboxynonadecanoylamino)butanoyl]amino]ethoxy]ethoxy]acetyl]-[His14,Arg17,Pro21,Pro27]-h-amylin (peptide)
peptide: K([AEEA-γGlu-C20 diacid])CNTATCATQRLAHFLRHSSPNFGAIPSSTNVGSNTY-NH2
modifications: disulfide 2-7; N-terminus assumed
SMILES: CC[C@H](C)[C@H](NC(=O)[C@H](C)NC(=O)CNC(=O)[C@H](Cc1ccccc1)NC(=O)[C@H](CC(N)=O)NC(=O)[C@@H]1CCCN1C(=O)[C@H](CO)NC(=O)[C@H](CO)NC(=O)[C@H](Cc1c[nH]cn1)NC(=O)[C@H](CCCNC(=N)N)NC(=O)[C@H](CC(C)C)NC(=O)[C@H](Cc1ccccc1)NC(=O)[C@H](Cc1c[nH]cn1)NC(=O)[C@H](C)NC(=O)[C@H](CC(C)C)NC(=O)[C@H](CCCNC(=N)N)NC(=O)[C@H](CCC(N)=O)NC(=O)[C@@H](NC(=O)[C@H](C)NC(=O)[C@@H]1CSSC[C@H](NC(=O)[C@@H](N)CCCCNC(=O)COCCOCCNC(=O)CC[C@H](NC(=O)CCCCCCCCCCCCCCCCCCC(=O)O)C(=O)O)C(=O)N[C@@H](CC(N)=O)C(=O)N[C@@H]([C@@H](C)O)C(=O)N[C@@H](C)C(=O)N[C@@H]([C@@H](C)O)C(=O)N1)[C@@H](C)O)C(=O)N1CCC[C@H]1C(=O)N[C@@H](CO)C(=O)N[C@@H](CO)C(=O)N[C@H](C(=O)N[C@@H](CC(N)=O)C(=O)N[C@H](C(=O)NCC(=O)N[C@@H](CO)C(=O)N[C@@H](CC(N)=O)C(=O)N[C@H](C(=O)N[C@@H](Cc1ccc(O)cc1)C(N)=O)[C@@H](C)O)C(C)C)[C@@H](C)O
notes: also called compound 69
For B2, in assay [1], the “Ratio hCT/hAmylin binding” value came to 65.3. In assay [2], the IC50 came to 8.68 nM.

B3: N^ε1-[2-[2-[2-[[(4S)-4-carboxy-4-(19-carboxynonadecanoylamino)butanoyl]amino]ethoxy]ethoxy]acetyl]-[Lys14,Arg17,Pro21,Pro27,Pro31]-h-amylin (peptide)
peptide: K([AEEA-γGlu-C20 diacid])CNTATCATQRLAKFLRHSSPNFGAIPSSTPVGSNTY-NH2
modifications: disulfide 2-7; N-terminus assumed
SMILES: CC[C@H](C)[C@H](NC(=O)[C@H](C)NC(=O)CNC(=O)[C@H](Cc1ccccc1)NC(=O)[C@H](CC(N)=O)NC(=O)[C@@H]1CCCN1C(=O)[C@H](CO)NC(=O)[C@H](CO)NC(=O)[C@H](Cc1c[nH]cn1)NC(=O)[C@H](CCCNC(=N)N)NC(=O)[C@H](CC(C)C)NC(=O)[C@H](Cc1ccccc1)NC(=O)[C@H](CCCCN)NC(=O)[C@H](C)NC(=O)[C@H](CC(C)C)NC(=O)[C@H](CCCNC(=N)N)NC(=O)[C@H](CCC(N)=O)NC(=O)[C@@H](NC(=O)[C@H](C)NC(=O)[C@@H]1CSSC[C@H](NC(=O)[C@@H](N)CCCCNC(=O)COCCOCCNC(=O)CC[C@H](NC(=O)CCCCCCCCCCCCCCCCCCC(=O)O)C(=O)O)C(=O)N[C@@H](CC(N)=O)C(=O)N[C@@H]([C@@H](C)O)C(=O)N[C@@H](C)C(=O)N[C@@H]([C@@H](C)O)C(=O)N1)[C@@H](C)O)C(=O)N1CCC[C@H]1C(=O)N[C@@H](CO)C(=O)N[C@@H](CO)C(=O)N[C@H](C(=O)N1CCC[C@H]1C(=O)N[C@H](C(=O)NCC(=O)N[C@@H](CO)C(=O)N[C@@H](CC(N)=O)C(=O)N[C@H](C(=O)N[C@@H](Cc1ccc(O)cc1)C(N)=O)[C@@H](C)O)C(C)C)[C@@H](C)O
notes: also called compound 74
Turning to B3, the “Ratio hCT/hAmylin binding” value in assay [1] was 101. Further, the IC50 in assay [2] is 79.9 nM.

B4: N^ε1-[2-[2-[2-[[(4S)-4-carboxy-4-(19-carboxynonadecanoylamino)butanoyl]amino]ethoxy]ethoxy]acetyl]-[His14,Arg17,Pro21,Pro27,Pro34]-h-amylin (peptide)
peptide: K([AEEA-γGlu-C20 diacid])CNTATCATQRLAHFLRHSSPNFGAIPSSTNVGPNTY-NH2
modifications: disulfide 2-7; N-terminus assumed
SMILES: CC[C@H](C)[C@H](NC(=O)[C@H](C)NC(=O)CNC(=O)[C@H](Cc1ccccc1)NC(=O)[C@H](CC(N)=O)NC(=O)[C@@H]1CCCN1C(=O)[C@H](CO)NC(=O)[C@H](CO)NC(=O)[C@H](Cc1c[nH]cn1)NC(=O)[C@H](CCCNC(=N)N)NC(=O)[C@H](CC(C)C)NC(=O)[C@H](Cc1ccccc1)NC(=O)[C@H](Cc1c[nH]cn1)NC(=O)[C@H](C)NC(=O)[C@H](CC(C)C)NC(=O)[C@H](CCCNC(=N)N)NC(=O)[C@H](CCC(N)=O)NC(=O)[C@@H](NC(=O)[C@H](C)NC(=O)[C@@H]1CSSC[C@H](NC(=O)[C@@H](N)CCCCNC(=O)COCCOCCNC(=O)CC[C@H](NC(=O)CCCCCCCCCCCCCCCCCCC(=O)O)C(=O)O)C(=O)N[C@@H](CC(N)=O)C(=O)N[C@@H]([C@@H](C)O)C(=O)N[C@@H](C)C(=O)N[C@@H]([C@@H](C)O)C(=O)N1)[C@@H](C)O)C(=O)N1CCC[C@H]1C(=O)N[C@@H](CO)C(=O)N[C@@H](CO)C(=O)N[C@H](C(=O)N[C@@H](CC(N)=O)C(=O)N[C@H](C(=O)NCC(=O)N1CCC[C@H]1C(=O)N[C@@H](CC(N)=O)C(=O)N[C@H](C(=O)N[C@@H](Cc1ccc(O)cc1)C(N)=O)[C@@H](C)O)C(C)C)[C@@H](C)O
notes: also called compound 68
In the case of B4, in assay [1], the “Ratio hCT/hAmylin binding” value was determined as 64.4. Moreover, the IC50 in assay [2] amounted to 5.66 nM.

B5: N^ε1-[2-[2-[2-[[(4S)-4-carboxy-4-(19-carboxynonadecanoylamino)butanoyl]amino]ethoxy]ethoxy]acetyl]-[Ser14,Arg17,Pro21,Pro27,Pro31]-h-amylin (peptide)
peptide: K([AEEA-γGlu-C20 diacid])CNTATCATQRLASFLRHSSPNFGAIPSSTPVGSNTY-NH2
modifications: disulfide 2-7; N-terminus assumed
SMILES: CC[C@H](C)[C@H](NC(=O)[C@H](C)NC(=O)CNC(=O)[C@H](Cc1ccccc1)NC(=O)[C@H](CC(N)=O)NC(=O)[C@@H]1CCCN1C(=O)[C@H](CO)NC(=O)[C@H](CO)NC(=O)[C@H](Cc1c[nH]cn1)NC(=O)[C@H](CCCNC(=N)N)NC(=O)[C@H](CC(C)C)NC(=O)[C@H](Cc1ccccc1)NC(=O)[C@H](CO)NC(=O)[C@H](C)NC(=O)[C@H](CC(C)C)NC(=O)[C@H](CCCNC(=N)N)NC(=O)[C@H](CCC(N)=O)NC(=O)[C@@H](NC(=O)[C@H](C)NC(=O)[C@@H]1CSSC[C@H](NC(=O)[C@@H](N)CCCCNC(=O)COCCOCCNC(=O)CC[C@H](NC(=O)CCCCCCCCCCCCCCCCCCC(=O)O)C(=O)O)C(=O)N[C@@H](CC(N)=O)C(=O)N[C@@H]([C@@H](C)O)C(=O)N[C@@H](C)C(=O)N[C@@H]([C@@H](C)O)C(=O)N1)[C@@H](C)O)C(=O)N1CCC[C@H]1C(=O)N[C@@H](CO)C(=O)N[C@@H](CO)C(=O)N[C@H](C(=O)N1CCC[C@H]1C(=O)N[C@H](C(=O)NCC(=O)N[C@@H](CO)C(=O)N[C@@H](CC(N)=O)C(=O)N[C@H](C(=O)N[C@@H](Cc1ccc(O)cc1)C(N)=O)[C@@H](C)O)C(C)C)[C@@H](C)O
notes: also called compound 73
On to B5, for which the “Ratio hCT/hAmylin binding” value in assay [1] came out at 51.7. In assay [2], the IC50 is 5.38 nM.
